In paper PMC7039410 (Nature, 2019):

How the values were obtained:
AUC = biological target: the molecule itself; experiment: AUC
[1] = biological target: histone H2B, in the mononucleosome (X. laevis, UniProt P02281 2-126); experiment: cross-linking

binding result [1]: binds
B1: Swi6 (natural protein)
chain: MKKGGVRSYRRSSTSKRSVIDDDSEPELPSMTKEAIASHKADSGSSDNEVESDHESKSSSKKLKENAKEEEGGEEEEEDEYVVEKVLKHRMARKGGGYEYLLKWEGYDDPSDNTWSSEADCSGCKQLIEAYWNEHGGRPEPSKRKRTARPKKPEAKEPSPKSRKTDEDKHDKDSNEKIEDVNEKTIKFADKSQEEFNENGPPSGQPNGHIESDNESKSPSQKESNESEDIQIAETPSNVTPKKKPSPEVPKLPDNRELTVKQVENYDSWEDLVSSIDTIERKDDGTLEIYLTWKNGAISHHPSTITNKKCPQKMLQFYESHLTFRENE
stoichiometry N (AUC): 2
